Assay results reported in publication PMC3105396 (Nucleic Acids Research, 2011).

Target: POLRMT.STREP2 (POLRMT carrying a FLAG and a STREP2 binding group) (human, UniProt O00411 42-1230)
Assay: pull-down

Chain of POLRMT.STREP2 (POLRMT carrying a FLAG and a STREP2 binding group) (O00411 42-1230): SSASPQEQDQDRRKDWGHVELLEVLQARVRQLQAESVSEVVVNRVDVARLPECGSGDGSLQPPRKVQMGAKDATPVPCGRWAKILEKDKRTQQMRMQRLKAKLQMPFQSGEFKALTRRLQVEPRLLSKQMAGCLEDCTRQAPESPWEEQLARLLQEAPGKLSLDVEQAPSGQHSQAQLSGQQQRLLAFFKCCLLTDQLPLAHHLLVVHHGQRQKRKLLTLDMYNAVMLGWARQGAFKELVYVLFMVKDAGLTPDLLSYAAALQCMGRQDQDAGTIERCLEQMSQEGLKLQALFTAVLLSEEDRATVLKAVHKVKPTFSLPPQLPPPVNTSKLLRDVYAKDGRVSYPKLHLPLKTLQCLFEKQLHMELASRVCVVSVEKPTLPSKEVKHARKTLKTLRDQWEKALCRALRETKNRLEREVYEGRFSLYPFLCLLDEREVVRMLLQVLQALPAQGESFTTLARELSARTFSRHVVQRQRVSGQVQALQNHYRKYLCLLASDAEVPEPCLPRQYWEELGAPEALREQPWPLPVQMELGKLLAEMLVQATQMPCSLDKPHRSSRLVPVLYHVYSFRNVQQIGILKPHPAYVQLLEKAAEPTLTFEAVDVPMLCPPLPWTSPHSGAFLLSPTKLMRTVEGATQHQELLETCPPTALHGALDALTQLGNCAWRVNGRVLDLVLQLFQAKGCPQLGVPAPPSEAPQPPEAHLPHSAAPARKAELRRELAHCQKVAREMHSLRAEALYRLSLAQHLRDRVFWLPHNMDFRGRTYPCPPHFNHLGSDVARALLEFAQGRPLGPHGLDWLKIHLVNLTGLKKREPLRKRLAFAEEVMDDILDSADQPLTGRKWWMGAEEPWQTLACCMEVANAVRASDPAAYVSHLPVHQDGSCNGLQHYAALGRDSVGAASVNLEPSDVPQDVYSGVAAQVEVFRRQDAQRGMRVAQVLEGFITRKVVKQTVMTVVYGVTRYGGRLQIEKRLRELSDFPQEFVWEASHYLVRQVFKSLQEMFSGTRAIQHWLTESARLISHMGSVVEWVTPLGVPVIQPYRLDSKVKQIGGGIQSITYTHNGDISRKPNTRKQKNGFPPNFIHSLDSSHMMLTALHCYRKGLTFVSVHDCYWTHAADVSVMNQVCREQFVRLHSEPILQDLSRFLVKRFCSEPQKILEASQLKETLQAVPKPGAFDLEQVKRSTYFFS

amount in the POLRMT.STREP2 peak elution fractions relative to TFAM: 2 fold
amount in the POLRMT.STREP2 peak elution fractions relative to TFB2M: 5 fold
B1: TEFM (transcription elongation factor of mitochondria), endogenous (natural protein, human (endogenous in HEK 293T), UniProt Q96QE5 36-360, looked up)
chain: KSTTPKKITPNVTFCDENAKEPENALDKLFSSEQQASILHVLNTASTKELEAFRLLRGRRSINIVEHRENFGPFQNLESLMNVPLFKYKSTVQVCNSILCPKTGREKRKSPENRFLRKLLKPDIERERLKAVNSIISIVFGTRRIAWAHLDRKLTVLDWQQSDRWSLMRGIYSSSVYLEEISSIISKMPKADFYVLEKTGLSIQNSSLFPILLHFHIMEAMLYALLNKTFAQDGQHQVLSMNRNAVGKHFELMIGDSRTSGKELVKQFLFDSILKADPRVFFPSDKIVHYRQMFLSTELQRVEELYDSLLQAIAFYELAVFDSQP
